Assay results as given in article PMC8864165 (2022).
Square brackets hold non-standard residues; d marks the D form. Ends that are not written are not given here. Ac6c = NC1(C(=O)O)CCCCC1

B1: ARV-1502 (peptide)
peptide: [Ac6c]RPDKPRPYLPRPRPPRPVR-NH2
modifications: N-terminus assumed
SMILES: CC(C)C[C@H](NC(=O)[C@H](Cc1ccc(O)cc1)NC(=O)[C@@H]1CCCN1C(=O)[C@H](CCCNC(=N)N)NC(=O)[C@@H]1CCCN1C(=O)[C@H](CCCCN)NC(=O)[C@H](CC(=O)O)NC(=O)[C@@H]1CCCN1C(=O)[C@H](CCCNC(=N)N)NC(=O)C1(N)CCCCC1)C(=O)N1CCC[C@H]1C(=O)N[C@@H](CCCNC(=N)N)C(=O)N1CCC[C@H]1C(=O)N[C@@H](CCCNC(=N)N)C(=O)N1CCC[C@H]1C(=O)N1CCC[C@H]1C(=O)N[C@@H](CCCNC(=N)N)C(=O)N1CCC[C@H]1C(=O)N[C@H](C(=O)N[C@@H](CCCNC(=N)N)C(N)=O)C(C)C
B2: peptide 102 (peptide)
peptide: [Ac6c]RPFFPRPYLPLPRPPRPVR-NH2
modifications: N-terminus assumed
SMILES: CC(C)C[C@H](NC(=O)[C@H](Cc1ccc(O)cc1)NC(=O)[C@@H]1CCCN1C(=O)[C@H](CCCNC(=N)N)NC(=O)[C@@H]1CCCN1C(=O)[C@H](Cc1ccccc1)NC(=O)[C@H](Cc1ccccc1)NC(=O)[C@@H]1CCCN1C(=O)[C@H](CCCNC(=N)N)NC(=O)C1(N)CCCCC1)C(=O)N1CCC[C@H]1C(=O)N[C@@H](CC(C)C)C(=O)N1CCC[C@H]1C(=O)N[C@@H](CCCNC(=N)N)C(=O)N1CCC[C@H]1C(=O)N1CCC[C@H]1C(=O)N[C@@H](CCCNC(=N)N)C(=O)N1CCC[C@H]1C(=O)N[C@H](C(=O)N[C@@H](CCCNC(=N)N)C(N)=O)C(C)C
B3: peptide #2 (peptide)
chain: [Ac6c]RPKKPRPYLPRPRPPRPVR-NH2
modifications: N-terminus assumed
SMILES: CC(C)C[C@H](NC(=O)[C@H](Cc1ccc(O)cc1)NC(=O)[C@@H]1CCCN1C(=O)[C@H](CCCNC(=N)N)NC(=O)[C@@H]1CCCN1C(=O)[C@H](CCCCN)NC(=O)[C@H](CCCCN)NC(=O)[C@@H]1CCCN1C(=O)[C@H](CCCNC(=N)N)NC(=O)C1(N)CCCCC1)C(=O)N1CCC[C@H]1C(=O)N[C@@H](CCCNC(=N)N)C(=O)N1CCC[C@H]1C(=O)N[C@@H](CCCNC(=N)N)C(=O)N1CCC[C@H]1C(=O)N1CCC[C@H]1C(=O)N[C@@H](CCCNC(=N)N)C(=O)N1CCC[C@H]1C(=O)N[C@H](C(=O)N[C@@H](CCCNC(=N)N)C(N)=O)C(C)C

Key:
E. coli DnaK = E. coli DnaK (Escherichia coli, UniProt P0A6Y8 1-638); assay: FP
S. aureus DnaK = S. aureus DnaK (Staphylococcus aureus, UniProt P99110 1-610); assay: FP

Binder	Ki (E. coli DnaK) [nM]	Ki (S. aureus DnaK) [nM]
B1	400	13700
B2	310	4200
B3	600	–
